Source: PMC6542726 (Molecular psychiatry, 2018)

B1: ankyrin-G fragment of 26 amino acids (residues 1985-2010) (domain or fragment)
chain: PEDDWTEFSSEEIREARQAAASHAPS

Tests used:
[1] = molecular target: GABAA receptor associated protein (GABARAP) (mouse) (UniProt Q9DCD6); assay: ITC
[2] = molecular target: GABAA receptor associated protein (GABARAP) (mouse, UniProt Q9DCD6 1-117); assay: ITC
Chain of GABAA receptor associated protein (GABARAP) (Q9DCD6 whole entry): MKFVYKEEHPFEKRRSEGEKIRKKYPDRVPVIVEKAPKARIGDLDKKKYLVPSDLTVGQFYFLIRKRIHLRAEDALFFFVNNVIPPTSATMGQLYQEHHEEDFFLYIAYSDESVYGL

Chain of GABAA receptor associated protein (GABARAP) (mouse) (Q9DCD6 whole entry): as above

Molecule | Kd [1] | Kd [2]
ankyrin-G W1989R (from UniProt O70511 1985-2010) (domain or fragment) | 11 µM | –
B1 | – | 0.0029 µM
